Assay results from the supplement of paper PMC6379048.

Columns and labels:
HNRNPD = molecular target: T1, HNRNPD (UniProt Q14103); assay: EC50 of free RNA motif oligo competing protein binding to immobilised probe
T1 sequence: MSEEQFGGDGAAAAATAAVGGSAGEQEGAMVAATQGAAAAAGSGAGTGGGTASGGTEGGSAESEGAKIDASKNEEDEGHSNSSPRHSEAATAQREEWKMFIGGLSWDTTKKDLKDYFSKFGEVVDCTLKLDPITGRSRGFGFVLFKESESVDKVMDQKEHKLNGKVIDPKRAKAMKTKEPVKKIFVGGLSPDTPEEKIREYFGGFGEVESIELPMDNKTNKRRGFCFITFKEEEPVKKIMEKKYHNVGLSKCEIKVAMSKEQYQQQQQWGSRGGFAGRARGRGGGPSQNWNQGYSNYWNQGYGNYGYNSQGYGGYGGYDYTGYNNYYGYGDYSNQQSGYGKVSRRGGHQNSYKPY
Summary of the method: (§1)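 Kd was calculated as EC50, taken from a four-parameter log-logistic fit, multiplied by a protein-dependent depletion factor. The assay used HEK293-FT lysate (2.5 mg protein/well) pre-incubated for 1 h at 4°C with free RNA oligos (0 nM to 30 μM), then incubated for 30 min at 4°C with the matching oligos bound through a 5′-amino-C6 linker to NHS-Sepharose beads. Bound proteins were measured by label-free LC-MS/MS and normalised to the control.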

ELAVL2 = ELAVL2 (UniProt Q12926); assay: as above
Summary of the method: as §1

ELAVL1 = ELAVL1 (UniProt Q15717); assay: as above
Summary of the method: as §1

MEX3B = molecular target: T2, MEX3B (UniProt Q6ZN04); assay: as above
T2 sequence: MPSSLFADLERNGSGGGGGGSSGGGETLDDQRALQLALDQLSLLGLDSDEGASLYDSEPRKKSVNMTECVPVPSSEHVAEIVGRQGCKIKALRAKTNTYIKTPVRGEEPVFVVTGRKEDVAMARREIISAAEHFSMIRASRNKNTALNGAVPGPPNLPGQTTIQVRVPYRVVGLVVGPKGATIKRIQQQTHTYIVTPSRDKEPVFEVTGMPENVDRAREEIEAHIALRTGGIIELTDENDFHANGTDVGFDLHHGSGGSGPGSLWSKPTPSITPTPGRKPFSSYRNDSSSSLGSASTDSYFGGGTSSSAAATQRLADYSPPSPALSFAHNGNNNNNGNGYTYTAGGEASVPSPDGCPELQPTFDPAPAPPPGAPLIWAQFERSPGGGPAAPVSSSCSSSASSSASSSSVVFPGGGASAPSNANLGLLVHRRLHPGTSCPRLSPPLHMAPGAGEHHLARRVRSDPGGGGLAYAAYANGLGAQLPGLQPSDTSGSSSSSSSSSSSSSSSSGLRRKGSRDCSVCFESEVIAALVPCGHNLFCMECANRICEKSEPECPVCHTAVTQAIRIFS
Summary of the method: as §1

HNRNPUL1 = molecular target: T3, HNRNPUL1 (UniProt Q9BUJ2); assay: Kd (EC50 corrected by depletion factor)
T3 sequence: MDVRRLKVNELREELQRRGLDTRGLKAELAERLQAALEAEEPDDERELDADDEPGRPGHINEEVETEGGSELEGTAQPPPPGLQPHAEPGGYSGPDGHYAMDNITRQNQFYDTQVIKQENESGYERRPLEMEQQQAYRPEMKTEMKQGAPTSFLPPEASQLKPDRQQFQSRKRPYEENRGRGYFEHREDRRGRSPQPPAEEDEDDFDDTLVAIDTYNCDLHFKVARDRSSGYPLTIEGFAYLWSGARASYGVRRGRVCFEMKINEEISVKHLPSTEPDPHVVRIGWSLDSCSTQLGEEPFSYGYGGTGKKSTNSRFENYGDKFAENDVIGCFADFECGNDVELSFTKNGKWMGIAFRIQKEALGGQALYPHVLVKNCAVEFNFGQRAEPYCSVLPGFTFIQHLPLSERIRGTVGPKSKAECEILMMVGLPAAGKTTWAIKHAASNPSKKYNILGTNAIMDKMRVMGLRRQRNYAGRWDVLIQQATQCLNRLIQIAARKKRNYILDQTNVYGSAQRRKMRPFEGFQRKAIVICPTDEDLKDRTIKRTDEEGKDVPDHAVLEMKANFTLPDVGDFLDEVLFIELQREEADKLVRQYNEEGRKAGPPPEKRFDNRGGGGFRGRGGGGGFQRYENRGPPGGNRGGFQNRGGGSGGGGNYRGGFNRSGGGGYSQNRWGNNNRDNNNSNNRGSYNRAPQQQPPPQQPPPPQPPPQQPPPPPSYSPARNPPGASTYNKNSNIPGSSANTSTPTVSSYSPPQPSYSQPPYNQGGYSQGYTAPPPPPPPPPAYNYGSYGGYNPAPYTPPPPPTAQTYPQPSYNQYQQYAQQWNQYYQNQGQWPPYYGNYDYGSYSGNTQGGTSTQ
Summary of the method: as §1

Sequence of ELAVL1 (Q15717 whole entry): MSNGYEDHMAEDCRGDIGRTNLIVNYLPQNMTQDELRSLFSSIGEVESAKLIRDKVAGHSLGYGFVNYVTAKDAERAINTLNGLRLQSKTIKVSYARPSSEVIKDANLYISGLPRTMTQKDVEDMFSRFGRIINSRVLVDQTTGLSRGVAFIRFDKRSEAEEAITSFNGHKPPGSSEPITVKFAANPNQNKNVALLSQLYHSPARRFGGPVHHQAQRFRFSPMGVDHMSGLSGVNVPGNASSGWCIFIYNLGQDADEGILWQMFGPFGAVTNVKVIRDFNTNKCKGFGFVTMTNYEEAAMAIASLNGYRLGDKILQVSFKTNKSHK
Sequence of ELAVL2 (Q12926 whole entry): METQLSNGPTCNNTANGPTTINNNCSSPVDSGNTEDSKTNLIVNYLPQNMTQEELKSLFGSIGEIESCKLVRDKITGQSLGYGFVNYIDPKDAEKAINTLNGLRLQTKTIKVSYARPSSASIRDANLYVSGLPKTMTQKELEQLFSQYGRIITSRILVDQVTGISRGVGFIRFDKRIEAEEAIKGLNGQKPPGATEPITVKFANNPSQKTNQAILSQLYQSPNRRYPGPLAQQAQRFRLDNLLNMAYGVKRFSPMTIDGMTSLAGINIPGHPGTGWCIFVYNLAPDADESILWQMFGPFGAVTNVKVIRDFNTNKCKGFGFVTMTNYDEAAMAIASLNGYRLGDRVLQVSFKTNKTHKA

Sequence	EC50 (HNRNPD)	EC50 (ELAVL2)	EC50 (ELAVL1)	EC50 (MEX3B)	Kd (HNRNPUL1)
UAUUUAU	653 nM	3840 nM	3040 nM	728 nM	427 nM
CUGUCCU	–	–	–	–	35.7 nM
AAUAAA	6520 nM	9740 nM	5060 nM	1640 nM	308 nM
